# From the DeepSol protein solubility set
# Experiment: soluble on expression in E. coli; label from the status in PepcDB or PDB records
row,Sequence,soluble on expression in E. coli
1,MGSDKIHHHHHHMMSRPIILGIVGDSAAGKTTLTRGIAQVLGPENVTLICTDDYHRYDRQQRAEIGITALHPDCNHLDIMQQHLSLLRTGQPILKPVYSHKTGSFEPPQYIKPNKFVIIEGLLGYSTRAARDCYDVKVYLAPPENLRAKWKVKRDTQKRGYTPEQVLAELEKREPDSEQFIRPQRQWSDIVVSFYPPHEDGDETNGHLNVRLVLRPTIPHPDFTSIINLTNGSSVSAIRLGLDRDMSKPVDVLEVDGHATLEQVNKLEHILCSDMPYLSSVCDRESNPELGKIAGTTGETLQSYPLALTQLIITYHMLKATQIYQ,not soluble
2,MGSDKIHHHHHHMNAIASRQRPLLPVREAVVTRVRGSAPTAVGASMCLLEDGSLLGTVGGGRMEYQVCQVLCSPRSEAPPALLSFTLGTADDQCCGGQVEICVLDVPLFFSELYQPGASRLYQRDSAGRLRLVAGMTRLGREIGSFDALTVLLRANAPGMDVEERHFALPAPHHQPLWIFGAGHVGRAIASMAHKLDFASSVFDQRPEWADPAAFPPEVTLVDTWTWADLQAPATDAMVLIMTYSHAMDYALLEHFIGEPLAYLGVIASRSKAARFSHALSRAGHDIPDYLHMPMGLPGMGKKPPEIAISVLAELLQLRHKKTDF,not soluble
3,MGSDKIHHHHHHMNAPLLLRNVGRGESTESGAVPPAVLPPVQPSPTTLQAPDHAARRRIAVFRALQLGDMLCAVPALRALREGEPDAHITLIGLPWVRDFASRFGSLIDDVMVFPGAPGFPERPYDAAALAAFHAEARARRFDLAIQLHGSGTLSNDVVRQLGARTIAGFCPTSAEAALANEHERLLPWPGGNEIERLLGLMRALGYPVVDAHLAFPLRPQDHAGWQRLAELHGLVGGEYICVHPGARMLSRRWPVERFADVALRLRKRWRIVVTGAPDEIMLTHRLCELIGGDVVNLTAATPLGELAALIAHARLLLCNDTGPSHIAAALDTPSVVVSCGGDSDRWAPLDATLHHVLASYPPCRPCNWQKCPIRHECATAITVDAVEAEALSLASRGHDHA,not soluble
4,MGSDKIHHHHHHMNAPNSQKILFAITKKSQQDGRSFPTIIRVLKRIGSCAPQGVFQMLHWKPEYLRAFVSERSPQKLFDIAVHLAQDLDMDYLGLNIRIQIATQTPRLYLYSNYPSEWIERYQRDDFYKQDPAANLSHSSTMPVLWTDELYKEAPQFREMACLYGLRHGWTQSLHDQQHNESQISVARPNGPIDEVELYDKAGSVQWLCHTLHAVLGEHHLNALCPPQPKMSERELEVLKWSAAGKTAADVASILSLSQSTVNFHIRSVITKTNAANKAGAIAIAALRGWI,not soluble
5,MGSDKIHHHHHHMNDFTTEILKTLANKGDLNELFRVHLEKAVNTLLKTELTAFLDYEKYDRIGFNTGNSRNGSYDRTVKTEYGELHLQIPRDRNGEFKQQTVPAYRRTNDTLEETVIHLFRKGITMSEIADLIEKMYGHHYTPQTMSNITKSFTEEVTAFKGRELHDRYAAIYMDATYIPLKRKTVAKEAIHIAVGIRPDGSKEVLSYAIAPTESITIWEEILLDLQERGLKNVLLFITDGLKGMVGAISRFYPKARFQHCCVHVSRNISHKVRVDDRKEVCDDFKMVYQTSSKKVALEARGAFAEKWKTSYPKVVESILSNDHLLTFYDFPLAIRKSIYSTNLIESFNKQIKKYSHRKEQFQNEESMERFLVSSFDTYNQKFLGRSHKGFQQAEGELEQMLSQLIEN,not soluble
6,MGSDKIHHHHHHMNFGYWYYREYFNTIKLNSEGIVTNFSTFNKGKNDKLIKGATLPPCDKENDIKDVTGFELKTCYPGLLCGVGYHHEINKPADEKGKKVEGDKEDDAPEVYNLGMYFDYTSGLPVIPGSSIKGMLRSAIEEWDFLADYELNNGVTREEIIEKVFVGKEYSIYDRDIFLDAIPIRVDNTLFGEDYITHHPNPLQNPNPVRFLRVEPGVTYQFRFILKDHGEKLTVDFRTKLFKAIICTFGLGAKTNVGYGQFVEP,not soluble
7,MGSDKIHHHHHHMNIAMFSDTYAPQINGVATSIRVYKKKLTERGHKVVVVAPSAPEEEKDVFVVRSIPFPFEPQHRISIASTKNILEFMRENNVQIIHSHSPFFIGFKALRVQEEMGLPHVHTYHTLLPEYRHYIPKPFTPPKRLVEHFSAWFCNMTNVVIAPTEDIKRELESYGVKRPIEVLPTGIEVEKFEVEAPEELKRKWNPEGKKVVLYAGRIAKEKNLDFLLRVFESLNAPGIAFIMVGDGPEREEVEEFAKEKGLDLKITGFVPHDEIPLYYKLGDVFVFASKTETQGLVLLEALASGLPVVALKWKGVKDVLKNCEAAVLIEEENERLFAEKIKHILKNDRLREELSTKGREFVRKEWSVDRFVQRLEEIYTRAIEEGPVEINTSLMIKEFVKFEKLKEFFSKIEDRIWR,not soluble
8,MGSDKIHHHHHHMNIFQQLEHSKAPAAVRLVMVIDYIAKRDEASFTEICTDLSIPKSSVHHLLEVLVVTQLLRQRADGRYVLGLRLFELGGLVIKNIDLRKDTINFMHELVKETELTCHLGIMDGDNGFFLSKVESPKAIVKTSWEGKKIVFNRMSLGKVLVAWLPQERIESLIADCSFEYLTPRTITNKDDFLQHLKTVKEQGWAIDDGEDIEEICCMAAPIFNQNGDVIAAIGVNGMQSQYANGKKEKHLASLIKTSKAITAHINSRNIDIR,not soluble
9,MGSDKIHHHHHHMNISTIVSNLKDLILEVRAPYDLEITGVSNHSSKVKKGDLFICRRGEKFDSHEIIPEVMEKGAVAVVVEREIDLDFPYIQVFDSRYFEAKVASLFFEDPWKDVLTFGVTGTNGKTTTTMMIYHMLTSLGERGSVLTTAVKRILGNSYYDDITTPDAITILSAMKENREGGGKFFALEVSSHALVQQRVEGVRFDVGIFTNISRDHLDFHGTFENYLKAKLHLFDLLKDDGVAVLNESLADAFNRKSRKITFGTSKNADYRLGNIEVSWEGTQFVLETPDGLLKVFTRAIGDFNAYNAAAAIAALHQLGYDPKDLASSLETFTGVEGRFEVVRGAKKIGLNVVVDFAHSPDALEKLLKNVRKISQGRVIVVFGAGGNSDRGKRPMMSEVASKLADVVILTTDDPRGEDPEQIMEDLIKGIDKRKPYLVLFDRREAIETALTIANRGDSVVIAGRGHERYQIIDEEKKVPFQDREVVEEIIRDKLKGRKYAQ,not soluble
10,MGSDKIHHHHHHMNKDFTFTIKSSCFDENYNPSENTRITTNFANLARGKSRQENLRNTLVMMDNRFNTLAYWDNPKANRYSVELEIISVEIDIEGNGDTFPAIEILKTNIVDKKTNERIEGIVGNNFSSYVRDYDFSVLLPEHNKSHPGFSTPDNFGDLHGKLFKCFTNSKFYKDNFNKQPVICLSVSSKNTYHRTGNQHPVLGIEYQQNEPSLTDHYFERMGLQARYFMPANSVAPLAFYFSGDLLNDYTNLELISTISTMETFQKIYRPEIYNANSAAGQYYQPNLNNQDHSLTKIVYDRVERSQLAIEQGKFTEEHFIKPYKNILEQWSAHYAR,not soluble
11,MGSDKIHHHHHHMNKELETLIMSAVDLPTIPVVATKVIELIEQEDVTIEKLATAVSSDPAVAARILKLSNSAYYGCQRQINTLSAAIMLLGFKTLKSLVIAASLKQLNRRFGLTEKMLWEHSVGAALAGRVIATQGRFINEETGFLVGLFHDLGKTIMSNRDPQKFQGVMMRCYNEGIPFAEAERSVYPYSHAEVGALVIRKWNFPESLSTAIMHHHQFGSAPITDQYDLFLTATASLANKFCKKLGIGDRDADDDLNLTNAPEAMLLGFTSDTAEKALATFQETFEENKSFFLND,not soluble
12,MGSDKIHHHHHHMNKFNDIIDECDLSFSDWGKNYPRWSSLDAAWWKTFGGDNYLNKYKDGYIVFHREKIKEIARQYKIPSILLASVAHAEAGGMVDYFKYPTLFGRQVVHSYSGWPGKEKILPSPEKTSIGIIAMQIRVVAEIFGKNPSALRNAEATYISICLNKDNFNLTMVARHLYELINYDYPGTDTLNLTDEQFILAGARYNRGVQRSRSDLIRSINAEKDLIEVRDWTSYGRSMLNHREKITKLLYEVTTPPKNSDSN,not soluble
13,MGSDKIHHHHHHMNKLEIENLSKIYGKKVANDKITVTLENGVYGLLGPNGAGKSTLMKQITTLIKPDEGQILYNGEDIFKMDADYRNILGYLPQEFGVYKNFTAKEFLQYIGALKGLRGKYLNSKIGELLDLVGLYDVRNKSIGKFSGGMKRRVGIAQVLLNDPKIIVLDEPTAGLDPQERARFRNLIAKMSRDKIIILSTHIISDIESVAKETIMIKDGKLLMKGTHKDILSHMENKVYNVQVKNECEVDDIQSKYKVVSIQSDINSIVLRIVSEDIPSEDNIQPVQAKFEDVYMFYFDLEDAREV,not soluble
14,MGSDKIHHHHHHMNLQGLLLFDIDGVIRDVAASYRRAIQETVHHYSGWRPSVAEIDALKTEGIWNNDWDASLELLRRDQKSRNQALELPSREQLIEVFSRFYFGGDPNGDPSNWQGFIRNEPLLVNHRFFEELSSLGFAWGFVSGAEPPSARFVLEQRLGLKHPTLIAMGEAPDKPDPTGLLQLASQLAGRRLGQGVPTVAYLGDTVADVRTVINARQQQPEQQWMSLAVAPPHLHGIEQQEARNAYEDRLKQAGADHILSCTTDAIETLKNW,not soluble
15,MGSDKIHHHHHHMNMAQVAVALAKLAGIRKALDLALNDDHKKAGRLPIQNFLIEEVGRYFTGAATQLSILKKELPDLFGDFVEMPVEPKTEMAKTSTEGAAQYRYARSQLEVLARDIDQIFELRANSELAPPLIAAATTRRVFISHGRAPDWREVQAYVEKDIGLPTLELAQEPNQGRTILAKLMEASGQCDSAVIVMTGDDLDAAGQARARENVIHEIGFFQGKYGLGRVCLLHEEGVSIPSNIHGLVYTPFPKGMVSACFGVLTRELKAFY,not soluble
16,MGSDKIHHHHHHMNNKYKNSYIVKEKELVSLSVYNVGFQSCDSLYQWGPGIRDHYLIHYIISGKGRYTVNGSVHTLTPGDAFLVYPNTEVIYQADAQDPWEYTWVGFTGSDAATILRATDFTKAHPYIHSVSNGNEIKRQLMHIYDARGTEFENALEMTGRLYTTLALFVSAATSKPPQNSANSYVQKGIEYISANYSYPITVEDIASYIGLSRSHLFRSFQSILGVSPKEYLTDFRIKQACYLLKHSSLSITAIAGSIGFDNSLYFSKTFHKIKGLSPKEYRSKYKKAQE,not soluble
17,MGSDKIHHHHHHMNNNQTRVLITAIGTMNCTTIISELKKAEEVFYVIGADINGKYSIANSNEVDEFFQFPSVLHDREGYVQYLLNFCKEHNVEVFFCVVDEEVEVVAKHKEDFNAIGITLCLANIDAIITCHNKNLFAEWSEKNIAKYCIKRYENITDVNNDNFPIFIKPVEGRASIGCRKIENMEELWKYASVWDNYIAQEYVTGEIVSVDIVRNRKTEQFEVVQKLELLRNSNGCGIAVEIVDIPEIRQLCCIIADIFNLNGVINAEFFITNKGLKIIEINPRLPAGIEYSCMAGLDVVLNALRIARGEACIFKDIKIGAHYAKRYETYEIK,not soluble
18,MGSDKIHHHHHHMNNTIPRWRGFNLLEAFSIKSTGNFKEEDFLWMAQWDFNFVRIPMCHLLWSDRGNPFIIREDFFEKIDRVIFWGEKYGIHICISLHRAPGYSVNKEVEEKTNLWKDETAQEAFIHHWSFIARRYKGISSTHLSFNLINEPPFPDPQIMSVEDHNSLIKRTITEIRKIDPERLIIIDGLGYGNIPVDDLTIENTVQSCRGYIPFSVTHYKAEWVDSKDFPVPEWPNGWHFGEYWNREKLLEHYLTWIKLRQKGIEVFCGEMGAYNKTPHDVVLKWLEDLLEIFKTLNIGFALWNFRGPFGILDSERKDVEYEEWYGHKLDRKMLELLRKY,soluble
